{"source": "the DeepSol protein solubility set", "data": [{"assay": "soluble on expression in E. coli; label from the status in PepcDB or PDB records", "values": [{"sequence": "GHMGAWLASLKQTLGLLPADRKIRVLMLGLDNAGKTSILYRLHLGDVVTTVPTVGVNLETLQYKNISFEVWDLGGQTGVRPYWRCYFSDTDAVIYVVDSTDRDRMGVAKHELYALLDEDELRKSLLLIFANKQDLPDAASEAEIAEQLGVSSIMNRTWTIVKSSSKTGDGLVEGMDWLVERLREQGLGA", "soluble on expression in E. coli": "soluble"}, {"sequence": "GHMKGLTEKLMILSHQSIKNLLGKVILNYSEENVRENGYDLRICGDKYYELVQGAELPEKKATLREIEFKERAILSANHTYLFESCEEFNMPADLAVLITLKSTLARNGFLAPPTVIDAGYKGKVNVAITAVYNSSLKKGMATHHLIFLKLDKPTERLYNGKYQGGILI", "soluble on expression in E. coli": "soluble"}, {"sequence": "GHMPNIPPPFTAPYAPDDAEIAARLLPASHLSPPQEARIHRTATRLIEAIRKRDDRLGGVEDMLREFALSTKEGLALMVLAEALLRVPDARTADQFIEDKLGEGDFIHHETKSTAFLVNASAWALGLSARVIQPGETPDGTIGRLVKRLGAPAVRTATRQAMRLMGNHFVLGETIEQALERGKPRSGQKTRYSFDMLGEGARTAADARRYFDAYASAIETIGKAAGNHALPDRPGISVKLSALHPRFEAISRARVMVELVPQLLDLAQRAKAHDLNFTVDAEEADRLELSLDVIAATLADPSLKGWDGFGLAIQAYQKRASAVIDYVDALARAHDRKLMVRLVKGAYWDTEIKRAQERGLDGYPVFTRKAMTDLNYVACASKLLALRPRIFPQFATHNALTVATVLEMAEGSSGFEFQRLHGMGEALYEQLAKDHADIAYRTYAPVGSHRDLLAYLVRRLLENGANSSFVAQAADYRVPVPALLQRPADAIVRPQAAAHPRIPLPCDLFAPERRNSRGVEFGARTALDQLLTDVKAETGDLKPIADATPDQAHAAVAAARAGFAGWSRTPAGIRAAALEQAAHLLESRSAHFIALLQREGGKTLDDALSELREAADFCRYYAAQGRKLFGSETAMPGPTGESNALTMRGRGVFVAISPWNFPLAIFLGQVTAALMAGNSVVAKPAEQTPRIAREAVALLHEAGIPKSALYLVTGDGRIGAALTAHPDIAGVVFTGSTEVARSINRALAAKDGPIVPLIAETGGINAMIADATALPEQVADDVVTSAFRSAGQRCSALRLLFVQEDVADRMIEMVAGAARELKIGDPSDVATHVGPVIDVEAKQRLDAHIARMKTEARLHFAGPAPEGCFVAPHIFELTEAGQLTEEVFGPILHVVRYRPENLERVLRAIERTGYGLTLGVHSRIDDSIEAIIDRVQVGNIYVNRNMIGAVVGVQPFGGNGLSGTGPKAGGPHYLARFATEQTVTINTAAAGGNAALLAGEE", "soluble on expression in E. coli": "soluble"}, {"sequence": "GHMSRRYWQLDVFAERPLTGNGLAVFDDASALDDAAMQAWTRELRQFESIFLLPGDDPRAFRARIFTLEEELPFAGHPLLGAAALLHHLRGGDNEQHWTLHLASKSVALRSVRAGSGFYAEMDQGRAEFGATPDAGTCRWFAEAFSLSANDLSGHPPRVVSTGLPYLLLPVTAEALGRARQVNDLQEALDKLGAAFVYLLDVDGREGRTWDNLGLVEDVATGSAAGPVAAYLVEYGLAARGEPFVLHQGRFLERPSRLDVQVATDGSVRVGGHVQLLARAELLTSAGS", "soluble on expression in E. coli": "soluble"}, {"sequence": "GHMTKLNQESTAPKVLFTGVVDARGERAVLALGGSLAGSAAEASHLVTDRIRRTVKFLCALGRGIPILSLDWLHQSRKAGFFLPPDEYVVTDPEQEKNFGFSLQDALSRARERRLLEGYEIYVTPGVQPPPPQMGEIISCCGGTYLPSMPRSYKPQRVVITCPQDFPHCSIPLRVGLPLLSPEFLLTGVLKQEAKPEAFVLSPLEMSST", "soluble on expression in E. coli": "soluble"}, {"sequence": "GHVSDRPAGRMPLTVHRNVGRWLSEILHASIRDTGVSSRIEFVRRTLHGWVREEYSETELPNAVYRNLYFPVLDAQPAHAGSGKIETISECDRLKNLVRNVTDTLVENYPQGLESEALLIALDGVKLELARIRKDIEMYGDPRKR", "soluble on expression in E. coli": "soluble"}, {"sequence": "GIDPFTNEAASAAGVVGGMVDSITQAINQLDEGPMGDPEGSFVDYQTTMVRTAKAIAVTVQEMVTKSNTSPEELGPLANQLTSDYGRLASQAKPAAVAAENEEIGAHIKHRVQELGHGCSALVTKAGALQCSPSDVYTKKELIECARRVSEKVSHVLAALQAGNR", "soluble on expression in E. coli": "soluble"}, {"sequence": "GITPKYTATAKVYMVSASKNSVVDLADLSIGTSLSEDYAELLHVRPIIEAINEENDLGYTYEQLNGMIDISTVEDTRILKISATSIKPEEAKTIANALAEKAVTEIPKLMGTSSPNIAERAITPKGKSSPSLKKN", "soluble on expression in E. coli": "soluble"}, {"sequence": "GITPRFSITQDEEFIFLKIFISNIRFSAVGLEIIIQENMIIFHLSPYYLRLRFPHELIDDERSTAQYDSKDECINVKVAKLNKNEYFEDLDLPTKLLARQGDLAGADALTENTDAKKTQKPLIQEVETDGVSNN", "soluble on expression in E. coli": "soluble"}, {"sequence": "GKDFSYWVKMTTGYSDNKIKEAGFQATPGFDDIVRGERSDRGVWGYECIGMFRTYQDIEEYFAVNKITSYLGNTKDNIHPGMLIYRDVRGQRNADGTYGEADGVIDQNDYVKISN", "soluble on expression in E. coli": "not soluble"}, {"sequence": "GKREPDLTGGFSTYLKYKNITFNALFSFSFGNKMRLNDLYESSGQRLPYPDQNMSSEFVNRWREPGDEDRTIIPVLSDKSLQINDKDVTYRIADNGWDMYNKSDIRVVSGSFLRCRSMSIRYDFKREWLKPVYLKGASVSFDMGNVFVIKDKALKGRDPEQIGFGSRSIPPQRSYSLRFNITL", "soluble on expression in E. coli": "not soluble"}, {"sequence": "GKRKLATISTKGKVKDLTDTLVGSSIGRPYISGGFTASSEGYMAFTQGSSSRPADVAVINTRKKLVKLTQLNEDLLAHKNLGKVTEINYKSSFDDEPIQGWYVTPPNFDPKKKYPLILEIHGGPHLAYGPHFSAELQRFAAQGYVVFYDNHRGSSSYGERFAMLLKYKYSSKEDFADHNSGVDAMLGLGFIDEGNLFIAGGSAGGIATAYAIGLTDRFSAAVVVKPVINWLSKVLTADSGLGQIPTQFPGMPWEHVEHYWKRSPMSLVGNVTTPTMLMTGEEDLRTPMAQTEQFYQALKLRKIDTVLVKVPGSPHGIAGKPSRMITKIEHTLAWFEKYKT", "soluble on expression in E. coli": "not soluble"}, {"sequence": "GKRSHSMKRNPNAPVTKAGWLFKQASSGVKQWNKRWFVLVDRCLFYYKDEKEESILGSIPLLSFRVAAVQPSDNISRKHTFKAEHAGVRTYFFSAESPEEQEAWIQAMGEAARVQ", "soluble on expression in E. coli": "soluble"}, {"sequence": "GKSTTLFSRHTKAIVWGMQTRAVQGMLDFDYVCSRDEPSVAAMVYPFTGDHKQKFYWGHKEILIPVFKNMADAMRKHPEVDVLINFASLRSAYDSTMETMNYAQIRTIAIIAEGIPEALTRKLIKKADQKGVTIIGPATVGGIKPGCFKIGNTGGMLDNILASKLYRPGSVAYVSRSGGMSNELNNIISRTTDGVYEGVAIGGDRYPGSTFMDHVLRYQDTPGVKMIVVLGEIGGTEEYKICRGIKEGRLTKPIVCWCIGTCATMFSSEVQFGHAGACANQASETAVAKNQALKEAGVFVPRSFDELGEIIQSVYEDLVANGVIVPAQEVPPPTV", "soluble on expression in E. coli": "soluble"}, {"sequence": "GLLMEGDEPAGGKWNFDTENRKPAAPDLLRPRPLRFEPDAEVRAVLDLVEARFPRHFGRLRPFHWATDRAEALRALDHFIRESLPRFGDEQDAMLADDPFLSHALLSSSMNLGLLGPMEVCRRAETEWREGRAPLNAVEGFIRQILGWREYVRGIWTLSGPDYI", "soluble on expression in E. coli": "not soluble"}, {"sequence": "GLVPRGSHMMEILRGSPALSAFRINKLLARFQAANLQVHNIYAEYVHFADLNAPLNDSEQAQLTRLLQYGPALSSHTPAGKLLLVTPRPGTISPWSSKATDIAHNCGLQQVDRLERGVAYYIEASTLTAEQWRQVAAELHDRMMETVFSSLTDAEKLFIHHQPAPVSSVDLLGEGRQALIDANLRLGLALAEDEIDYLQEAFTKLGRNPNDIELYMFAQANSEHCRHKIFNADWIIDGKPQPKSLFKMIKNTFETTPDYVLSAYKDNAAVMEGSAVGRYFADHNTGRYDFHQEPAHILMKVETHNHPTAISPWPGAATGSGGEIRDEGATGRGAKPKAGLVGFSVSNLRIPGFEQPWEEDFGKPERIVTALDIMTEGPLGGAAFNNEFGRPALTGYFRTYEEKVNSHNGEELRGYHKPIMLAGGIGNIRADHVQKGEIVVGAKLIVLGGPAMNIGLGGGAASSMASGQSDADLDFASVQRDNPEMERRCQEVIDRCWQLGDANPILFIHDVGAGGLSNAMPELVSDGGRGGKFELRDILSDEPGMSPLEIWCNESQERYVLAVAADQLPLFDELCKRERAPYAVIGDATEEQHLSLHDNHFDNQPIDLPLDVLLGKTPKMTRDVQTLKAKGDALNRADITIADAVKRVLHLPTVAEKTFLVTIGDRTVTGMVARDQMVGPWQVPVADCAVTTASLDSYYGEAMSIGERAPVALLDFAASARLAVGEALTNIAATQIGDIKRIKLSANWMAAAGHPGEDAGLYDAVKAVGEELCPQLGLTIPVGKDSMSMKTRWQEGNEQREMTSPLSLVISAFARVEDVRHTLTPQLSTEDNALLLIDLGKGHNALGATALAQVYRQLGDKPADVRDVAQLKGFYDAMQALVAARKLLAWHDRSDGGLLVTLAEMAFAGHCGVQVDIAALGDDHLAALFNEELGGVIQVRAEDRDAVEALLAQYGLADCVHYLGQALAGDRFVITANDQTVFSESRTTLRVWWAETTWQMQRLRDNPQCADQEHEAKANDTDPGLNVKLSFDINEDIAAPYIATGARPKVAVLREQGVNSHVEMAAAFHRAGFDAIDVHMSDLLGGRIGLGNFHALVACGGFSYGDVLGAGEGWAKSILFNHRVRDEFETFFHRPQTLALGVCNGCQMMSNLRELIPGSELWPRFVRNHSDRFEARFSLVEVTQSPSLLLQGMVGSQMPIAVSHGEGRVEVRDDAHLAALESKGLVALRYVDNFGKVTETYPANPNGSPNGITAVTTENGRVTIMMPHPERVFRTVANSWHPENWGEDSPWMRIFRNARKQLG", "soluble on expression in E. coli": "soluble"}, {"sequence": "GMAEKQYDFTHVPKRQGNSIKWGVLKEKELPMWIAEMDFKIAPEIMASMEEKLKVAAFGYESVPAEYYKAVADWEEIEHRARPKEDWCVFASGVVPAISAMVRQFTSPGDQILVQEPVYNMFYSVIEGNGRRVISSDLIYENSKYSVNWADLEEKLATPSVRMMVFCNPHNPIGYAWSEEEVKRIAELCAKHQVLLISDEIHGDLVLTDEDITPAFTVDWDAKNWVVSLISPSKTFNLAALHAACAIIPNPDLRARAEESFFLAGIGEPNLLAIPAAIAAYEEGHDWLRELKQVLRDNFAYAREFLAKEVPEVKVLDSNASYLAWVDISALGMNAEDFCKYLREKTGLIISAGNGYRGNGHEFVRINLACPKELVIDGMQRLKQGVLNLNN", "soluble on expression in E. coli": "soluble"}, {"sequence": "GMAPDQQVPATALGKSSRISLDGRRSERSVILADGSMHSLTLLHPGVYTLSSEVAETIRVLSGMAYYHAEGANDVQELHAGDSMVIPANQSYRLEVMEPLDYLLSS", "soluble on expression in E. coli": "soluble"}, {"sequence": "GMFTCKVNEHITIRLLEPKDAERLAELIIQNQQRLGKWLFFAENPSSADTYRETIIPDWRRQYADLNGIEAGLLYDGSLCGMISLHNLDQVNRKAEIGYWIAKEFEGKGIITAACRKLITYAFEELELNRVAICAAVGNEKSRAVPERIGFLEEGKARDGLYVNGMHHDLVYYSLLKREWEGEK", "soluble on expression in E. coli": "soluble"}, {"sequence": "GMIPFPESRLAAQMSFVVEIDKLKTILRQTLLTDSSRRENDAEHSWHIATMAFLLAEYADEAVQIGRVARMLLIHDIVEIDAGDTFIHDEAGNEDKEERERKAAARLFGLLPPDQAAEYSALWQEYEARETADARFADALDRLQPLLHNFETEGGTWKPHGVTRAKVDKLLPRIEAGSKRLGAYARALVDEAVRRGYLAP", "soluble on expression in E. coli": "soluble"}, {"sequence": "GMMNDYLNFLDGRVSVRRFDPDAVLPNDLIKDMLEHASYAPSGNNFQPWRVVVVKNKNKQEDLKKLAALQPQVATASAVFLLFGDENAYDLTWWQEFHVQKGIITKDEAAARAERIRQYFDLHPEDKETQGLRLDVGLFAMNLMQVVRVYGYDSVPMRGVDFDAIKTYLDMPNGWEPILMLPVGKALQAGNPHVRKSVAEFAEIIE", "soluble on expression in E. coli": "soluble"}]}]}
